The experiment addresses Clostridium perfringens archaeal-type phosphoenolpyruvate carboxylase (PepcA) (Clostridium perfringens) (UniProt Q8XLE8). The experiment in a line: AUC.

The substance “Clostridium perfringens archaeal-type phosphoenolpyruvate carboxylase (PepcA) (from UniProt Q8XLE8 1-537) (enzyme)” yielded a percent of the total concentration as dimer of 30%.

For the origin of these results see paper PMC3092815 (Proteins, 2011).
